The results in this text go back to publication doi:10.1101/2020.10.21.349050.

Usually Kd stands for the concentration at which binding is half-saturated.

What all share (test): EMSA
Background: A gel shift assay detects complexes by their altered migration in electrophoresis.

One series has as its target T1, GST-Swi6 3K->3A (Schizosaccharomyces pombe, UniProt P40381 1-328, K242A;K243A;K244A).
T1 sequence: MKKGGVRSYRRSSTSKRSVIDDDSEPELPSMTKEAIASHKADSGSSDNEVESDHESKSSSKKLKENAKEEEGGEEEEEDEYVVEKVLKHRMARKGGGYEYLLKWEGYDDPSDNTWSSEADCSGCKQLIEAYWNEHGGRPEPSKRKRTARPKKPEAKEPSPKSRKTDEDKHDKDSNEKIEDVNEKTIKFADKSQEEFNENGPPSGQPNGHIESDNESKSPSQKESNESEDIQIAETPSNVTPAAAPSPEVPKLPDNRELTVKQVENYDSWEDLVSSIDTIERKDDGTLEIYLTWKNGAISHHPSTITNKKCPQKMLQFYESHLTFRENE

The target in series [1] is T2, GST-Swi6 (Schizosaccharomyces pombe, UniProt P40381 1-328).
T2 sequence: T1 sequence with A242K, A243K, A244K

The target of series [2] is T2, GST-Swi6. The source holds these as a separate data set.
For series [3], the target named is T2, GST-Swi6. This is another data set of the same source.
In series [4] the target is T2, GST-Swi6. The source holds these as a separate data set.
For series [5], the target named is T2, GST-Swi6. This is another data set of the same source.

Changes are numbered by the printed parent chain. Where two headings read alike, the source gives them in different places.

B1: D-For RNA-DNA hybrid (DNA:RNA)
RNA: UGGAUUAAGGAGAAGCGGUA
DNA: TACCGCTTCTCCTTAATCCA
As for B1, in the series with GST-Swi6 3K->3A, the binding result is recorded as “no binding”. The Kd in the series with GST-Swi6 [1] is 80 nM; with GST-Swi6 [2] it was 90 nM; with GST-Swi6 [3] it was 730 nM.
With UACCGCUUCUCCUUAAUCCA (ssRNA) [D-Rev RNA], the binding result in the series with GST-Swi6 [4] is reported as “no binding”.
Regarding ACAAGUGAUAAGAGUAGGUGU (ssRNA) [E-For RNA], binding with GST-Swi6 [5] was characterised by a dissociation constant (Kd) of 2150 ± 100 nM.
On to UGGAUUAAGGAGAAGCGGUA (ssRNA) [D-For RNA], for which the dissociation constant (Kd) with GST-Swi6 [1] is 2450 nM; with GST-Swi6 [3] it was 1790 nM.
